# Laboratory results reported in the nanobody polyreactivity screen of Harvey et al. (2022).
# Assay: yeast display, Sf9 membrane polyspecificity reagent, FACS + sequencing; frameworks hold sequencing errors
# In short: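 Galactose induction of a Saccharomyces cerevisiae BJ5465 synthetic nanobody display library ran 36–48 hours. The cells were then stained for 1 hour at 4 °C with 10% biotinylated, detergent-solubilized Sf9 membrane reagent, pulled down on streptavidin microbeads and FACS-sorted into low and high (top ~1%) gates on expression and reagent-binding fluorescence. Labels for polyreactivity follow the gate of origin.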
row,Sequence,polyreactivity (PSR sort gate)
1,QVQLVESGGGLVQAGGSLRLSCAPSGSIFWYYCKGWYRQAPGKERELVAAISSGGSTNYADSVKGRFAISRDNAKNTVYLQMNSLKAEDTAVYYCAVRFTFPRYDYWGQGTQVTVSS,high polyreactivity
2,QVQLVESGGGLVQAGGSLRLSCAPSGSILWQYAMGWYRQAPGKERELVAAITYSGGSTHYADSVKGRFTISRDNAKNTVYLQMNSLKPEETAVYYCAAGYWYRYAALRYDHWGQGTQVTVSS,low polyreactivity
3,QVQLVESGGGLVQAGGSLRLSCAPSGSTFDPFAMGWYRQAPGKERELVADITSSDGSTYYADSVKGRFTISRDNAKNTVYFQMNSLKPEVTAVYYCYSDYRYFWTYWGWSIYDYWGQGTQVTVSS,high polyreactivity
4,QVQLVESGGGLVQAGGSLRLSCAPSGSTFFTYAMGWYRQAPGKERELVASISIGGSTNYADSVKGRFTISRDNAKNTVYLQMNSLIQEDSAVYYCAIRYFTFGVDYEYWGQGTQVTVSS,low polyreactivity
5,QVQLVESGGGLVQAGGSLRLSCAPSGSTFRGNAMGWYRQAPGKERELVAAITRRGGSTYYADSVKGRFTISRDNAKNTVYLQMNSLKPEDTAVYYCAKVGRETEYAYWGQGTQVTVSS,high polyreactivity
6,QVQLVESGGGLVQAGGSLRLSCAPSGSTFRRNAMGWSRQAPGKERELVAANSGSGGRTYYADSVKGRITISRDNAKNTVYLQMNSMKPEDTAVYYCAARSTVYEFFYYRGWWEYYYWGQGTQVTVSS,low polyreactivity
7,QVQLVESGGGLVQAGGSLRLSCAPSGSTFYVNTMGWYRQAPGKERELVAAITATGASTYYADSVKGRFTISRDNAKNTVYVQMNSLKPEDTAVYYCNVRLRIRSGYWGQGTQVTVSS,high polyreactivity
8,QVQLVESGGGLVQAGGSLRLSCAPSGYIFQAYVMGWYRPAPGKERELVAAITSGGGTYYADSVKGRFTISRDNAKNTVYLQMISLKPEDTAVYYCAARYTQRPRRNYWGQGSQVTVSS,high polyreactivity
9,QVQLVESGGGLVQAGGSLRLSCAPSGYNFSKYAMGWYRQAPGKERELVAAITSGGGSTYYADSVKGRFTISRDNAKNTVYLQMNSLKPEDTAVYYCNAACRRIVGQTYDYWGQGTQVTVSS,high polyreactivity
10,QVQLVESGGGLVQAGGSLRLSCAPSGYTFWLYAMGWYRQAPGKERELVAAITWNGGSTYYADSVKGRFTISRDIAKNTVYLQMISLNPEYTAVYYCAAEAIIYLQWFDYWGQGTQVTVSS,low polyreactivity
11,QVQLVESGGGLVQAGGSLRLSCAPSRSTLNYYAMGWYRQAPGKERELVAAITWSGGSTSYADSVKGRFTISRDNAKNTVYLQMNSLKPEDTAVYYCATDFPTVQLYDTDWLSSDMGYWGQGTQVTVSS,low polyreactivity
12,QVQLVESGGGLVQAGGSLRLSCAPSVRTFQYYAMGWYRPAPGKERELVAAINQGGGRTYYADSVKGRFTISRDTAKNTVYLQMNSLKPEDTAVYYCAADGLSKFDYWGQGTQVTVSS,low polyreactivity
13,QVQLVESGGGLVQAGGSLRLSCAPTGFTIGWYAMGWYRQAPGKERELVATISWSGSSTYYADSVKGRFTISRDNAKNTVYLQMNSLKPEDTAVYYCNAVYGRFVVLRYDYWAQGTQVTVSS,high polyreactivity
14,QVQLVESGGGLVQAGGSLRLSCASSGFIFAYNAMGWYRQAPGKERELVAAISRSGGSTRYADSVKGRFTISRDNAKNTVYLQMNSLIPEDTAVYYCAADWSDYWDWSWYDYWGQGTQVTVSS,high polyreactivity
15,QVQLVESGGGLVQAGGSLRLSCASSGFIFKRYAMGWYRQAPGKERELVAAITSGGSTHYADSVKGRFTISRDNAKNTVYLQMNSLKPEDTAVYYCATRRYKWGVRYDYWGQGTQVTVSS,high polyreactivity
16,QVQLVESGGGLVQAGGSLRLSCASSGFTFGVYAMGWYRTAPGKERELVAGITRGGSTNYADSVKGRFTISRDNAKNTVYLQMNSLKPEDTAVYYCAKVSYGYLRSWGRYTRGDYWGQGTQVTVSS,high polyreactivity

row,Sequence,polyreactivity (PSR sort gate)
1,QVQLVESGGGLVQAGGSLRLSCASSGFTFPFYAMGWYRQAPGKESELVAAISWSGGSTYYADSVKGRFTISRDNAKNTVYLQMNSLKPEDTAVYYCAAEYISSPLGYDYWGQGTQVTVSS,high polyreactivity
2,QVQLVESGGGLVQAGGSLRLSCASSGFTFSLYARGWYSQAPGKEMELVAAISQRGGSTYYADSVKGRFTISRDNAKNTDYLQMNSLKPEDTAVYYCNDYAQVSYGTYDYWGQGTQVTVSS,high polyreactivity
3,QVQLVESGGGLVQAGGSLRLSCASSGGISYYYYAMGWYRQAPGKERELVAAISSDDDTYYADSVKGRFTISRDNAKNTVYLQMNSLKPEDTAVYYCAAEYDVVGPSIYGYLFYYWGQGTQVTVSS,high polyreactivity
4,QVQLVESGGGLVQAGGSLRLSCASSGGTFGSYAMGWYRHAPGKERELVAAIRSGDRTYYADSVKGRFTISRDNAKNTVYLQMNSLKPEDTAVYYCAAFYHHYYRYDYWGQGTQVTVSS,low polyreactivity
5,QVQLVESGGGLVQAGGSLRLSCASSGGTFSTYAMGWYRQAPGKERELVAAISSTGGSTYYADSVKGRFTISGDNAKNTVYLQMNSLKPEDTAVYYCAAYYSRGWLLYWDEMYFWGQGTQVTVSS,high polyreactivity
6,QVQLVESGGGLVQAGGSLRLSCASSGITFGRNTMGWYRQAPGKERELVAAIDSGGNTYADSVKGRFTISRDNAKNTVYLQMNSLKPEDTAVYYCDVDGGEFSSYGYWGQGTQVTVSS,low polyreactivity
7,QVQLVESGGGLVQAGGSLRLSCASSGITFGVYAMGWYRQAPGKERELVAAISRRGAYTYYADSVKGRFTISRDNGKNTVYLQMNSLKPEDTAVYYCAAYLARRQYDYWGQGTQVTVSS,high polyreactivity
8,QVQLVESGGGLVQAGGSLRLSCASSGITFRVYAMGWYRQAPGKERELVAGISRGGRTSYADSVKGRFTISRDNAKNTVYLQMNSLKPEDTAVYYCAARQYRHRVKYYYWGQGTQVTVSS,high polyreactivity
9,QVQLVESGGGLVQAGGSLRLSCASSGITFYVYAMGWYRQAPGKERELVASISWNGGRTYYADSVKGRFTISRDNAKNTVYLQMNSLKPEDTAVYYCAARAYSYWSGLDYWGQGTQVTVSS,high polyreactivity
10,QVQLVESGGGLVQAGGSLRLSCASSGLIFQYYVKGWYRQAPGKERELVAAISARGGGTYYADSVKGRFTISRDNAKNTVYLQMISLKPEDTAVYYCAADPVYAGPGYDYWGQGTQVTVSS,high polyreactivity
11,QVQLVESGGGLVQAGGSLRLSCASSGLTFRNYAMGGYRPAPGKERELVAAITVSGGSTYYADSVKGRFTISRDNAKNTVYLQMNSLKPEDTAVYYCAARVIHTTYSRNYYYWGQGTQVTVSS,high polyreactivity
12,QVQLVESGGGLVQAGGSLRLSCASSGLTFYGNAMVWYRPAPGKERELVAAISSSGGTTYYADSVKGRFTISRDNAKNTVYLQMTSLKPEDTAVYYCAARPSGGYESTRTRDYWGQGTQVTVSS,low polyreactivity
13,QVQLVESGGGLVQAGGSLRLSCASSGNIFRKYAMAWYRQAPGKERELVAITSGTNTYYADSVKGRFTISRDNAKNTVYVQMNSLKPEDSAVYYCNKSGFRSSHKYDYWGQGTQVTVSS,low polyreactivity
14,QVQLVESGGGLVQAGGSLRLSCASSGNTFVDYAMGWFRQAPGKETELVAAISDGGSTNYADSVKGRFTISRDNAKNTVDLQMNSLKPEDTEVYYCAKDELYIPGVWPYYEYDYWGQGTQVTVSS,low polyreactivity
15,QVQLVESGGGLVQAGGSLRLSCASSGRIFKKYAMGWYIQAPGKERELVATISSGGSTYYADSVKGRFTISRDNAKNTVYLQMNSLKREDTAGSYCARREYVRRDYFVTTYDYWGQGTQVTVSS,low polyreactivity
